B1: PRL-1 phosphatase (Drosophila melanogaster (Fruit fly)), O61722 (parent)
chain: MSITMRQKDLRPAPALIEYKGMKFLITDRPSDITINHYIMELKKNNVNTVVRVCEPSYNTDELETQGITVKDLAFEDGTFPPQQVVDEWFEVLKDKYQQNPEACVAVHCVAGLGRAPVLVALALIELGLKYEAAVEMIRDKRRGAINAKQLSFLEKYKPKARLKHKNGHKNSCSVQ

Variants of: B1
Settings: with uex_drome uex

**Q.** For D77A;C109S, which “effect of a mutation on the interaction” value is on record?
**A.** Its value is “decreasing interaction strength”.

Reference: IntAct's records for PubMed 31404830
